# Measurements published in the nanobody polyreactivity screen of Harvey et al. (2022).
# Assay: yeast display, Sf9 membrane polyspecificity reagent, FACS + sequencing; frameworks hold sequencing errors
# In short: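 After 36–48 hours of galactose induction, yeast (Saccharomyces cerevisiae BJ5465) displaying a synthetic nanobody library were stained at 4 °C for 1 hour with 10% biotinylated, detergent-solubilized Sf9 membrane reagent. Streptavidin microbeads enriched the stained cells before FACS sorting into low and high (top ~1%) gates on anti-HA and streptavidin fluorescence. Each clone's polyreactivity label reflects its gate of origin.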
row,Sequence,polyreactivity (PSR sort gate)
1,QVQLVESGGGLVQAGGSLRLSCAASGFIFARYAMGWYRQAPGKERELVASITRRGGSTYYADSVKGRFTISRDNAKNTVYLQMNSLKPEDTAVYYCARPNLLSGDYWGQGTQVTVSS,high polyreactivity
2,QVQLVESGGGLVQAGGSLRLSCAASGRTFRCYAMGWDRQAPGKERELVAAITYSVGSTYYADSVKGRLTISRDTAKNTVYLQMNSLKPEDTAVYYCAADSYPYRYRGKYSRLDYCGQGTQVTVSS,low polyreactivity
3,QVQLVESGGGLVQAGGSLRLSCAASGITFVRYAMGWYRQAPGKERELVAAISSGGSTHYADSVKGRFTISRDNAKNTVYLQMNSLKPEDTAVYYCAAQWTESSLYRFGYLGQGTQVTVSS,high polyreactivity
4,QVQLVESGGGLVQAGGSLRLSCAASGGIFDSYAMGWYRQAPGKERELVADITWSGGSTYYADSVKGSFTISRDNAKNTVYLQMNSLKPEDTAVYLCAAVWNSPYDYWGQGTLVTVSS,low polyreactivity
5,QVQLVESGGGLVQAGGSLRLSCAASGSTFCYYAMGWYRQAPGKERELLAAITRSGGRTYYADSVKGRFTISRDNAKNTVYLQMNSLKPEDTAGYYCAADSRVGFGRLYGYWGQGTQVTVSS,high polyreactivity
6,QVQLVESWGGLVQAGGSLRLSCDDSGFTIRVYAMGWYRQAPGKERELVAAISVRGDSTYYADSVKGRFTISRDNAKNTVYLQMNSLKPEDTAVYYCNAVIAPYRRYDYWGQGTQVTVSS,high polyreactivity
7,QVQLEESGGGLVQAGGSLRLSCAASGRNFYYNAIGWYRQAPGKERELVATITRAGGTYYADSVKGRFTISRDNAKNTVYLQMNSLKPEDTAVYYCAKRHPIVDDYKGDYWGQGTQVTVSS,low polyreactivity
8,QVQLVESGGGLVQAGGSLRLSCAASGFTFYSNAMGWYRQAPGKERELVAAINWGGGSTYYADSVKGRFTISRDNAKNTVYLQMNSLKPEDTAVYYCAAEPIWEYWNGVSYAYDYWGQGTQVTVSS,low polyreactivity
9,QVQLVESGGGLVQAGGSLRLSCAASGFIFYLNAMGWYRQAPGKERELVAAISRGGTTYYADSVKGRFTISRDNAKNTVYLQMNSLIPEDTAVYYCAAKDKRWYSRYYWTGYDYWGQGTQVTVSS,high polyreactivity
10,QVQLVESGGGLVQAGGSLRLSCAASGIFRSNTMGWYRQAPGKERELVATISRRSGSTYYADSVKGRFTISRDNAKNTVYLQMNSLKPEDTAVYYCAAAAPRRKYDYWGQGTQVTVSS,high polyreactivity
11,QVQLVESGGGLVQAGGSLRLSCAASGRIFYVYAMGWYRQAPGKERELVADITRDGNTNYADSVKGRFTISRDNAKNTVYLQMNSLKPEDTAVYYCAAGGYPGTTYYGYDYWGQGTQVTVSS,low polyreactivity
12,QVQLVESGGGLVQAGGSLRLSCAASGNTFIYYAMGWYRQAPGKERELVAAITWSGGSTYYADSVKGRFTISRDNAKNTVYLQMNSLKPEDTAVYYCAKFTHNYYYWGQGTQVTVSS,high polyreactivity
13,QVQLLESGGGLVQAGGSLRLSCAASGSTFWPNAMGWYRQAPGKERELVAAITGGGGTNYADSVKGRFTISRDNAKNTVYLQMNSLKPEDTAVYYCAAKKVNSRSHVKYYYWGQGTQVTVSS,high polyreactivity
14,QVQLVESGGGLVQAGGSLRLSCAASGRIFSSYALGWYRQARGKERELVAAISASGGRTYYADSVKGRCTISRDNAKNTVYLQMNSLKPEDTAVYYCNRGYISGSVVERYYWGQGTQVTVSS,high polyreactivity
15,QVQLVESGGRLVQAGGSLRLSFAACGSILRDNSMGWYRQAPGKEREFVADIRGSYDSTYYADSVKGRFTISRDNAKHTVYLQMNSRKREDTAVYYCNRVDAWQDYDYWGLGTQVTVSS,low polyreactivity
16,QVQLVESGGGLVQAGGSLRLSCAASGFTFPSNAMGWYRQAPGKERELVAAISSTDSTNYADSVKGRFTISRDNAKNTVYLQMNSLKPEDTAVFYCNADRDDDYDYWGQGTQVTVSS,low polyreactivity

row,Sequence,polyreactivity (PSR sort gate)
1,QVQLVDSGGGLVQAGGSLRLSCAASGTTFYSYAMGWYRQAPGKERELVAAISSSGDSTYYADSVKGRFTISRDNAKNTVYLQMNSLKPEDTAVYYCAARKGELWFPQGGYNYWGQGTQVTVLS,low polyreactivity
2,QVQLVESGGRLVQAGGSLRLTCAASGYTYSYYAMGWYRQAPGKERELVAAINYSGGRTYYADSVKGRFTISRDNAKNTVYLQMNSLKPEDTAVYYCAAYTRNGDYDYWGQGTQVTVSS,high polyreactivity
3,QVQLGESGGGLVQAGGSLRLSCAASGSIVDVYAMGWYRPAPGKERELVADITSGDITNYADSVKGRFTISRDNAKNTVYLQMNSLKPEDTAVYYCATPLKLAYSPKLDYWGQGTQLTVSS,low polyreactivity
4,QVQLVESGGGLVQAGGSLRLSCAASGRIFDIYAMGWYRQAPGKERELVAAITSGGSTYYADSVKGRFTNSRDNAKNTVYFQMNILKPEYTAVYYCAADSVLLKDTGYDYWGKGTQVTVSS,low polyreactivity
5,QVQLVESGGGLVQAGGSLSLSSAASGPIFAYNAMGWYRQAPGKERELVAAISYSGGSTYYADSLKGRFTISRDNAKNTVYIQMNSLKPEDTAVYYCNAVYRYLTYRYDYWGQGTQVTVSS,high polyreactivity
6,QVQLVESGGGLVQAGGSLRLSCAASGSTLSRYVMGWYRRAAGKERELVAAISSSGGSTYYADSVKGRFTISRDNAKNTVYLQMNSLKPEDTADYYCNVDHWRRGRSDNYWGQGTQVTVSS,high polyreactivity
7,QVQLVESGGGLVQAGGSLRLSCAASGSTFNGYTMGCYRQAPGKEREFVATITFSDGSTYYADSVKGRFTISRDNAKNTVYLQMNSLKPEDTAVYYCNVDSPIGYDYWGQGTQVTVSS,low polyreactivity
8,QVQLVESGGGLVQAGGSLRLSCAASGRIFGYNAMGWYRQAPGKERELVAAIRGGGSTYYADSVKGRFTISRDNAKNSVYLQMYSLKPEDSAFYFCAATSYTYVLSPYRGDYWGQGTQVNVSS,high polyreactivity
9,QVQIVESGGGLVQAGGSLRLSCAASGSIFSRYTMGWYRQAPGKERELVARINSSGTSTYYADSVKGRFTISRDNEKNSVYFQMNSLKPEDTAVYYCDRTSRHVRYDYWGQGTQVTVSS,low polyreactivity
10,QVQLVESGGGLVQAGGSLRLSCAASGFTFTPNAMGRYRQAPGKERELVAVISYSGGSTYYADSVKGRFTISRDNAKNTVYLQMNSLKPEDTAVYYCAKRTYSSKYFGFEYWGQGTQVTVSS,high polyreactivity
11,QVQLVESGGGLVQAGGSLRLSCAASGSTFVPYAMGWYRQAPGKERELVAAISGTGGRTSYADSVKGRFTISRDNAKNTVYLQMNSLKPEDTAVYYCAAADGIYARYFFSRFPRFDYWGQGTQVTVSS,low polyreactivity
12,QVQLVESGGGLVQAGGSLRLSFAASGFTFQWYGMGWSRQAPGKERELVAAINYSGGSTYYADSVKGSFTLSRDNAKNTVYLQMNSLKPEDTAVYYCAAEFYSWPWLRLAPWSMDYWGQGTQVTVSS,high polyreactivity
13,QVQLVESGGGLVQAGGSLRISCAASGSTFYYYAMGWYRQAPGKEREFVAAITFRCGTTYYADSVKGRFTISRDYAKNTVYLQMNSLKREDTAVYYCDAKPPFRNYVRYDYWGQGTQVTVSS,high polyreactivity
14,QVQLVESGGGLVQAGGSLRLNCAASGSTFARNAMGWYRQAAGKERELVAAISGSGGSTYYADSVKGRFTISRDNAKNTVYLQMNSLKPEDTAVYYCAAARRYYAYRYDYWGQGTQVTVSS,high polyreactivity
15,QVQLVESGGGLVQAGVSLRLSCAASGSIFQSYDMGWYRQEPGKEREVVAAISWSGSTTYYADSVKGRFTLSRDNAKNTVYLQMNSLKPEDTAVYYCAVDSNPPDWWAVIYGFWGQGTQVTVSS,low polyreactivity
16,QVQLVESCGGLVQAGSSLRLSCAASVITFYGYAMGWYRQAPGKERELVADITRGGSTNYADSVKGRFTISRDNAKNTVFLQMNSLKPEDSAVYYCAKSTRRFSWYYSTVGYNYWAQGTQVTVSS,high polyreactivity
